Target: Cys-HLA (Staphylococcus aureus)

B1: Bm28H12 (VHH)
VHH: QVQLVESGGSVVQAGGSLRLSCTASGRNFNSYAMGWFRRPPGEQRDFIAAIIRSTGKTTYADSDSVKGRFTISKDSSGNTVYLQMNNLKPEDTAIYYCAGGDAGPYAFGYDYWGQGTQVTVSS
Question: For B1, which Kd is on record?
Answer: 0.1 nM

Reference: US20260226142A1
